The results in this text go back to IntAct's records for PubMed 17166838.

Sequences and labels used below:
B1: Huntingtin-associated protein 1 (Rattus norvegicus (Rat)), P54256-2 (parent)
chain: MRPKDQVQSSAGDGTGSGDPATGTPTTQPAADPAPEPSAEPKPAPAQGTGSGQKSGSRTKTGGSFCRSRIRGDSDAPWTRYIFQGPYGPRATGLGTGRAEGIWKTPAAYIGRRPGVSGPERAAFIRELQEALCPNPLPRKKITEDDIKVMLYLLEEKERDLNTAARIGQSLVKQNSVLMEENNKLETMLGSAREEILHLRKQVNLRDDLLQLYSDSDDDEEDEEDEEEEEGEEEEREGQRDQDQQHDHPYGAPKPPPKAETLHHCPQLEALKQKLKLLEEENDHLREEASHLDNLEDKEQMLILECVEQFSEASQQMAELSEVLVLRLEGYERQQKEITQLQAEITKLQQRCQSYGAQTEKLQQQLASEKGVHPESLRAGSHMQDYGSRPRERQEDGKSHRQRSSMPAGSVTHYGYSVPLDALPSFPETLAEELRTSLRKFITDPAYFMERCDTRCREERKKEQGTMPPPPVQDLKPPEDFEAPEELVPEEELGAIEEVGTAEDGPAEETEQASEETEAWEEVEPEVDEATRMNVVVSALEASGLGPSHLDMKYVLQQLSNWQDAHSKRQQKQKVVPKGECSRRGHPPASGTSYRSSTL

Variants of B1 are the subject of this assay. The note with it: with 1433z_human YWHAZ.
As to T598A, the “effect of a mutation on the interaction” value is recorded as “disrupting interaction”.
